Data reported in US20250382373A1 (BIOCYTOGEN PHARMACEUTICALS BEIJING, published 2025).
Each block holds one binder with its values, some of them ahead of it.

Tests used:
[1] = biological target: T1, monkey MET on fasMET-NIH3T3 cells (monkey (Macaca fascicularis)); experiment: flow cytometry on fasMET-NIH3T3 cells
[2] = biological target: human MET on hMET-NIH3T3 cells (human, UniProt P08581 25-1390); experiment: flow cytometry on hMET-NIH3T3 cells
[3] = biological target: T2, His-tagged human MET protein (human, UniProt P08581 25-932); experiment: SPR (Biacore 8K), antibody on Protein A chip
T2 construct: Bought protein; also called hMET-His; not shown: His tag
T2 sequence (P08581 25-932 limits assumed): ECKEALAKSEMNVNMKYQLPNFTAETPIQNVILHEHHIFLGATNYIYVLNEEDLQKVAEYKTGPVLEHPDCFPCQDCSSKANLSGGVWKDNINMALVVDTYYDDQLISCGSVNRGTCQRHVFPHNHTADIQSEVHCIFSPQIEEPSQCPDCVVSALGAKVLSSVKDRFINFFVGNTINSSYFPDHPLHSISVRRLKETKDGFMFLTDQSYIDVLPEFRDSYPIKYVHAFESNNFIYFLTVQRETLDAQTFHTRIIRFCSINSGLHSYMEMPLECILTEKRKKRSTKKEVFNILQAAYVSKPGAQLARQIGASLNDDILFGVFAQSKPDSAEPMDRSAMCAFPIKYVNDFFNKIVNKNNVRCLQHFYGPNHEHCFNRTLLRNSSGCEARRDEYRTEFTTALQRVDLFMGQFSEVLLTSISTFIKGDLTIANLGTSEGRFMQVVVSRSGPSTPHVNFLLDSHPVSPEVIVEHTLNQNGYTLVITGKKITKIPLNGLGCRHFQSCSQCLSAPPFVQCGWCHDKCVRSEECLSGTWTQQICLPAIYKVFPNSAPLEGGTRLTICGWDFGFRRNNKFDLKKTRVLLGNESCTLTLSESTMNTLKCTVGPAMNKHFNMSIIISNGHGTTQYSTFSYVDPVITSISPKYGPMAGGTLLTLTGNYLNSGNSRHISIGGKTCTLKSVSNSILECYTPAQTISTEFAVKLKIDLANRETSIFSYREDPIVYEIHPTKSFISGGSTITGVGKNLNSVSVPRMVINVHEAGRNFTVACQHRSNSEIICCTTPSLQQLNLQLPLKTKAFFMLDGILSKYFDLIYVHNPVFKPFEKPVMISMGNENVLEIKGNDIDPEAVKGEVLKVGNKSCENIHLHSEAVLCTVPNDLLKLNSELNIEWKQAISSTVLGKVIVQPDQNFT

[4] = biological target: T3, His-tagged dog MET (dog, UniProt Q75ZY9 25-933, limits assumed); experiment: SPR (Biacore 8K), antibody on Protein A chip; legend: - means no binding
T3 construct: Bought protein; also called dMET-His; not shown: His tag

[5] = biological target: T4, dog MET on dMET-NIH3T3 cells (dog (Canis lupus, printed 'Cans lupus'), UniProt Q75ZY9 25-1382); experiment: flow cytometry on dMET-NIH3T3 cells (1.44% positive cells)
T4 construct: also called dMET-NIH13T3 [sic]

[6] = biological target: T4, dog MET on dMET-NIH3T3 cells; experiment: flow cytometry on dMET-NIH3T3 cells
[7] = biological target: T3, His-tagged dog MET; experiment: SPR (Biacore 8K), antibody on Protein A chip
[8] = biological target: T4, dog MET on dMET-NIH3T3 cells; experiment: flow cytometry on dMET-NIH3T3 cells (5.33% positive cells)
[9] = biological target: T3, His-tagged dog MET; experiment: SPR (Biacore 8K), antibody on Protein A chip; remark: listed apart in the source
[10] = biological target: T2, His-tagged human MET protein; experiment: SPR (Biacore 8K), Protein A chip
[11] = biological target: T5, His-tagged human EGFR protein (human, UniProt P00533 25-645); experiment: SPR (Biacore 8K), Protein A chip
T5 construct: Bought protein; also called hEGFR-His; not shown: His tag

[12] = biological target: T6, His-tagged monkey EGFR protein (monkey (crab-eating macaque; Macaca …, UniProt A0A2K5WK39 25-645); experiment: SPR (Biacore 8K), Protein A chip
T6 construct: also called fasEGFR-His; not shown: His tag

[13] = biological target: T1, monkey MET on fasMET-NIH3T3 cells; experiment: flow cytometry on fasMET-NIH3T3 cells (0.18% positive cells)
[14] = biological target: T7, human MET on SNU-5 cells (human, UniProt P08581 25-1390); experiment: flow cytometry on SNU-5 cells
T7 construct: whole, on cells; Endogenous MET of SNU-5 cells
T7 sequence (P08581 25-1390): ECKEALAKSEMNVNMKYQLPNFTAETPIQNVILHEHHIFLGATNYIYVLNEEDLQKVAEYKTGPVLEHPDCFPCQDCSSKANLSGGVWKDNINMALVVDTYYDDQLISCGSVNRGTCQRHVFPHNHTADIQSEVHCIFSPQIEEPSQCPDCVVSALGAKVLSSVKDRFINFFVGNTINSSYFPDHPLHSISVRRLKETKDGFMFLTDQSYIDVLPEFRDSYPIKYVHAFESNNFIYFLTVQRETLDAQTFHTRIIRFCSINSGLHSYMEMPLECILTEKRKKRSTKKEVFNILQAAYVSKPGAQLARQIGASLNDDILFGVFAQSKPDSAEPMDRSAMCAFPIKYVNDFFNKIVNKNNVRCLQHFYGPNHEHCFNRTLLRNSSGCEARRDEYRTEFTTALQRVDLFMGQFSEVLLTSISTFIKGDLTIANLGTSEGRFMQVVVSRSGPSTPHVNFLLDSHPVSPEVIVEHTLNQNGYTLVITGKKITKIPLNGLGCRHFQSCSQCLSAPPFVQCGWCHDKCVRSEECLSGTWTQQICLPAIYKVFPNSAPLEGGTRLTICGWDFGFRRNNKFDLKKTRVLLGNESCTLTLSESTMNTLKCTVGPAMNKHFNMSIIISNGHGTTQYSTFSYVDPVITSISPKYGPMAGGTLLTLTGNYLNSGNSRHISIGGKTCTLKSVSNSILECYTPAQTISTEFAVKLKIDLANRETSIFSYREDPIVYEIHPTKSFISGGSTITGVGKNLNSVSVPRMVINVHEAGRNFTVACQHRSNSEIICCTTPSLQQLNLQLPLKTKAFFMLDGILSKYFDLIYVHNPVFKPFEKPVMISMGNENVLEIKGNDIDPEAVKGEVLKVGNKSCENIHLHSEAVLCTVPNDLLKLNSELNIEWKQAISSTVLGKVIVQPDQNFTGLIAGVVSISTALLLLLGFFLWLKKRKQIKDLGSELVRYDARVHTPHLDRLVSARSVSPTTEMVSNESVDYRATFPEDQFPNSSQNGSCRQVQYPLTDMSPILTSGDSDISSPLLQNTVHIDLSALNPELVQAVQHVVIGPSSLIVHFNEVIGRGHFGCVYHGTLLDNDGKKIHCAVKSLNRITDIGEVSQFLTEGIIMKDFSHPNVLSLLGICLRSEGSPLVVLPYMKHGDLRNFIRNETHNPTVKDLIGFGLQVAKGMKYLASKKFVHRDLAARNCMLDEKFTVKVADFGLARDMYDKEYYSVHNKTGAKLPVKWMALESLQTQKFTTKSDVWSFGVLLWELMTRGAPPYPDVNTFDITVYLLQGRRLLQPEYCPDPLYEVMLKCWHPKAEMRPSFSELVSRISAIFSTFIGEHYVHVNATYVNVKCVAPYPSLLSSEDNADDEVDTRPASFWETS

T1 sequence (chain, as listed by the source limits assumed): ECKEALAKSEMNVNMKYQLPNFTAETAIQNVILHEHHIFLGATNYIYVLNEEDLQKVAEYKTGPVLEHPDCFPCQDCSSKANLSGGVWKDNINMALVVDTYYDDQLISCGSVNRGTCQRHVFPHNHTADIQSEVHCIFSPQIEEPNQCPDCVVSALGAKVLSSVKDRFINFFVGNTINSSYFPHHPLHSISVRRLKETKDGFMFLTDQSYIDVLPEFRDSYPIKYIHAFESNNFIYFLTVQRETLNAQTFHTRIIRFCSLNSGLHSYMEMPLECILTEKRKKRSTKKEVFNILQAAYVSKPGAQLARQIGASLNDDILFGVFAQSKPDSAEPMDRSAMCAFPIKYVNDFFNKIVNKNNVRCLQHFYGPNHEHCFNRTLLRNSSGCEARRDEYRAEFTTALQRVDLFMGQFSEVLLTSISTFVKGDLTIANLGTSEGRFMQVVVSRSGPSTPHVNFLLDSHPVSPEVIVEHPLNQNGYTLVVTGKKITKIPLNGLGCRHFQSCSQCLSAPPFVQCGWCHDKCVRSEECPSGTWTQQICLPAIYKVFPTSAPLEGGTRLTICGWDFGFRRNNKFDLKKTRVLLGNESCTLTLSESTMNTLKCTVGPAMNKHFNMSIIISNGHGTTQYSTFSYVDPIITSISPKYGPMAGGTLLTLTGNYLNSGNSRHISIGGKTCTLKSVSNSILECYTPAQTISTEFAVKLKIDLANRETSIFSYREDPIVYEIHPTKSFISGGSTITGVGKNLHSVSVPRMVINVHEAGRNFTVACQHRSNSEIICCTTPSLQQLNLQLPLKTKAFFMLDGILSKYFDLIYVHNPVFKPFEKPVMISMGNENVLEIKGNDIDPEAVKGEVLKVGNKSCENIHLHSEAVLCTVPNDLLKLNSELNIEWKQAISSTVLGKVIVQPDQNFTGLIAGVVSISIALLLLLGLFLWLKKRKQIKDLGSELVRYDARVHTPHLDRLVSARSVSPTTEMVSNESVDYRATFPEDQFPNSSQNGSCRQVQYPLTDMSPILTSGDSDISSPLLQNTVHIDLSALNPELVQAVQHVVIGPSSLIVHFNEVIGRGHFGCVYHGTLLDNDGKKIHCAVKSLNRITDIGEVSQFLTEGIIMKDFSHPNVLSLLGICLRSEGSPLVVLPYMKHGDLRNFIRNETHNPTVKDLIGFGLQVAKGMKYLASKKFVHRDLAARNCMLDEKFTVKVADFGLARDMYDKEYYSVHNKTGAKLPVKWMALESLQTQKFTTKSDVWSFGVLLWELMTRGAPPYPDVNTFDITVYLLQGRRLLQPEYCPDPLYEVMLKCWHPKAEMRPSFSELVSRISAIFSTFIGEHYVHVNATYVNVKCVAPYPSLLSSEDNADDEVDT
human MET on hMET-NIH3T3 cells, sequence (P08581 25-1390 limits assumed): as the sequence (P08581 25-1390) above

B1: M-8H10 (antibody, V domains shown)
VH: QVQLQQWGAGLLKPSETLSLTCAVYGGSFSGYYWTWIRQPPGKGLEWIGESNHGGSTNFNPSLKSRVTISVDTSKNHFSLKLSPVTAADTAVYYCTRGGTIFGLKDAFDIWGQGTMVTVSS
VL: not shown
Percentage of Positive Cells [1]: 67.8%
Percentage of Positive Cells [2]: 99.8%
Kd [3]: 19.9 nM
koff [3]: 0.00138 s⁻¹
kon [3]: 69700 M⁻¹ s⁻¹
binding result [4]: no binding
binding result [5]: no binding

B2: M-8E2 (antibody, V domains shown)
VH: QVQLVQSGPALVKPTQTLTLTCTFSGFSLYTSGVAVAWIRQPPGKALEWLALIYWDDDKWYTPSLKTRLSITKDTSKNQVVLTMTNMDPVDTATYYCAHRGSFNWNYGYFDYWGQGTLVTVSS
VL: not shown
Percentage of Positive Cells [1]: 62.2%
Percentage of Positive Cells [2]: 99.6%
Percentage of Positive Cells [6]: 78.8%
Kd [7]: 50 nM
koff [7]: 0.00384 s⁻¹
kon [7]: 76900 M⁻¹ s⁻¹
Kd [3]: 13.1 nM
koff [3]: 0.000683 s⁻¹
kon [3]: 52200 M⁻¹ s⁻¹

B3: M-7D3 (antibody, V domains shown)
VH: QVQLVQSGLTLVKPTQTLTLTCTFSGFSLSTTGVSVGWIRQPPGKALEWLALIYWDDDKHYSPSLKSRLTITKDTSKNQVVLTMTNMDPVDTATYYCAPGGYSSGWPGFYDLWGRGTLVTVSS
VL: not shown
Percentage of Positive Cells [1]: 63.4%
Percentage of Positive Cells [2]: 99.6%
Percentage of Positive Cells [6]: 74.7%
Kd [7]: 62.3 nM
koff [7]: 0.00343 s⁻¹
kon [7]: 55000 M⁻¹ s⁻¹
Kd [3]: 11.6 nM
koff [3]: 0.000684 s⁻¹
kon [3]: 59100 M⁻¹ s⁻¹

B4: M-6D12 (antibody, V domains shown)
VH: QVQLQQSGPGLVKPSGTLSLTCAVSGGSISKSNWWTWVRQPPGKGLEWIGEIHHSGSTNYNPSLKSRVTISVEKTKNQFSLKLSSVTAADTAVYYCARGGGYGYDFDYWGQGTLVTVSS
VL: not shown
Percentage of Positive Cells [1]: 71.4%
binding result [8]: no binding
Percentage of Positive Cells [2]: 99.8%
Kd [3]: 60.6 nM
koff [3]: 0.00237 s⁻¹
kon [3]: 39100 M⁻¹ s⁻¹
binding result [4]: no binding

B6: M-6E6 (antibody, V domains shown)
VH: QVQLEQSGPTLVKPTQTLTLTCTFSGFSLSSTGVAMGWIRQPPGKALEWLALIYWDDDKHYSPSLESRLTITKDTFKNQVVLSMTNMDPLDTATYYCTHRRYTGYEDYWGQGILVTVSS
VL: not shown
Percentage of Positive Cells [1]: 49.2%
Percentage of Positive Cells [2]: 99.2%
Percentage of Positive Cells [6]: 73.2%
Kd [7]: 253 nM
koff [7]: 0.0175 s⁻¹
kon [7]: 69000 M⁻¹ s⁻¹
Kd [3]: 10.1 nM
koff [3]: 0.000634 s⁻¹
kon [3]: 62500 M⁻¹ s⁻¹

The next lines start with results.

binding result [9]: no binding
Kd [10]: 0.972 nM
koff [10]: 0.0001 s⁻¹
kon [10]: 103000 M⁻¹ s⁻¹
B5: Telisotuzumab analog (antibody, human IgG1, kappa, V domains shown)
VH: QVQLVQSGAEVKKPGASVKVSCKASGYIFTAYTMHWVRQAPGQGLEWMGWIKPNNGLANYAQKFQGRVTMTRDTSISTAYMELSRLRSDDTAVYYCARSEITTEFDYWGQGTLVTVSS
VL: DIVMTQSPDSLAVSLGERATINCKSSESVDSYANSFLHWYQQKPGQPPKLLIYRASTRESGVPDRFSGSGSGTDFTLTISSLQAEDVAVYYCQQSKEDPLTFGGGTKVEIKR
notes: Humanized IgG1 against MET
binding result [11]: no binding (tested: antigen up to 400 nM)
binding result [12]: no binding (tested: antigen up to 400 nM)

binding result [13]: no binding
Percentage of Positive Cells [14]: 95.6%
B7: M-2F12 (antibody, V domains shown)
VH: QVQLVQSGGGVVQPGRSLRLSCAASGFTFNNYGMDWVRQAPGKGLEWVAVIWNDGSKKYYGDFVKGRFTISRDNSKNTLYLEMNSLRAEDTAVYYCARDLEGGQLADAFDVWGQGTMVTVSS
VL: not shown
